PMC4499801, “Resolving single membrane fusion events on planar pore-spanning membranes” (Scientific Reports, 2015)
Primed or numbered codes have the meaning given here. Where no end group is shown, it is not given here. PEG12′ = PEG spacer of 12 units between cholesterol and peptide

T1: cholesterol-PEG12-(EIAALEK)4 (cholesterol-PEG12 anchor, as printed: cholesterol-PEG12-(EIAALEK)4)
T1 construct: printed as (EIAALEK)4, written out four times; coiled coil forming lipidated peptide; also called SNARE fusion mimetic; lipopeptide; source: reconstituted into pore-spanning membranes
T1 peptide: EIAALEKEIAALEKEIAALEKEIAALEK


Tests used:
[1] = target: T1, cholesterol-PEG12-(EIAALEK)4; test: single vesicle docking on planar pore-spanning membranes (two color confocal fluorescence microscopy); target reconstituted in pore-spanning membranes (DOPC/POPE/POPS/cholesterol 5:2:1:2, 1,000:1, Oregon Green DHPE), binder in Texas Red DHPE doped LUVs (1,000:1, 325 nm); buffer A (20 mM HEPES, 100 mM KCl, 1 mM DTT, pH 7.4); time series of 300 s; settings: both partners purified
[2] = target: T2, syntaxin 1A (residues 183-288) (Rattus norvegicus, UniProt P32851 183-288); test: assembly of the complex from purified proteins and purification by ion exchange chromatography (MonoQ); three purified proteins mixed with an excess of SNAP25a (1:1:1.5) in 1% CHAPS, over night at 7 °C, complex purified by MonoQ; settings: both partners purified
T2 construct: syntaxin 1A, Rattus norvegicus, residues 183-288; source: E. coli BL21(DE3), pET28a, purified (Ni-NTA, MonoQ, 1% CHAPS); also reconstituted alone into pore-spanning membranes
T2 sequence (P32851 183-288): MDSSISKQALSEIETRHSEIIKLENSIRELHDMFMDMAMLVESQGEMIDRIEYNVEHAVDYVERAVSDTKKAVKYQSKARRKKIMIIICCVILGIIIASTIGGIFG

Binder	binding result [1]	binding result [2]
{cholesterol-PEG12′}-KIAALKEKIAALKEKIAALKEKIAALKE (printed as (KIAALKE)4, written out four times; coiled coil forming lipidated peptide; also called SNARE fusion mimetic; lipopeptide; source: reconstituted into large unilamellar vesicles) [cholesterol-PEG12-(KIAALKE)4]	binds	
NVDKVLERDQKLSELDDRADALQAGASQFETSAAKLKRKYWWKNLKMM (domain or fragment, Rattus norvegicus, UniProt P63045 49-96, looked up, synaptobrevin 2, Rattus norvegicus, residues 49-96; also called C-terminal soluble fragment of synaptobrevin 2 (residues 49-96); soluble fragment of synaptobrevin 2; source: E. coli BL21(DE3), pET28a, purified (Ni-NTA, MonoS)) [synaptobrevin 2 (residues 49-96, soluble C-terminal fragment)]		binds
